Where a SMILES comes first, the peptide text is derived from it. The star is where a group is joined. X1 = O=C(OCC1c2ccccc2-c2ccccc21)N(CC(=O)*)C(=O)OCC1c2ccccc2-c2ccccc21; Fmoc = O=C(OCC1c2ccccc2-c2ccccc21)*
Experiments:
MMP-2 = molecular target: T1, MMP-2 (Homo sapiens, UniProt P08253); assay: Enzymatic degradation of peptide and peptide-PEG by MMP-2; format: biochemical; conditions: beginning of reaction (15 minutes), 37°C, Tris buffer pH 7.5; Figure 4
T1 sequence (P08253 110-660): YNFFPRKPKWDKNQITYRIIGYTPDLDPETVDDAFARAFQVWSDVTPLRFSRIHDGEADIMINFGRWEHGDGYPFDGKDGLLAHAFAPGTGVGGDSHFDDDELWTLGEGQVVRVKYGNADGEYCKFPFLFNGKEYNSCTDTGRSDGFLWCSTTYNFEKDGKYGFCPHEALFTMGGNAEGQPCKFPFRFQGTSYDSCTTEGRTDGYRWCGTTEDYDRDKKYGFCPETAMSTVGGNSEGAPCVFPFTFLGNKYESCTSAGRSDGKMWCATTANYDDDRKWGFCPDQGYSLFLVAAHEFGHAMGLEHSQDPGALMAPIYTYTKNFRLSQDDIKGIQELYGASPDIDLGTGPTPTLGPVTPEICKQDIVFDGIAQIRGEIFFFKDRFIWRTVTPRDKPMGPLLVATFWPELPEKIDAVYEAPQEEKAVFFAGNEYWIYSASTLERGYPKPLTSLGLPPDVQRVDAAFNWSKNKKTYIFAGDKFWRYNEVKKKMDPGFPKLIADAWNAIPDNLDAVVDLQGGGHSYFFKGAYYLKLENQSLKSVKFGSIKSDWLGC
Protocol: After mixing in 0.5 ml of sample in 0.5 ml of acetonitrile, the mixture was filtered and gel filtration was performed.
MMP-2 solution was diluted with Tris buffer. […] The final concentration of MMP-2 was 0.34 µg/ml. […] The Fmoc-GPQGIAGWG-PEG in the filtrate was separated and quantitatively determined by gel filtration.

[1] = Particle diameter determination of peptide-PEG micelles (NICOMP Model 370); format: physicochemical
Protocol: The particle diameter of the micelles and the liposomes was determined with the NICOMP Model 370 (Particle Sizing Systems, Inc.).
Then particle diameter was determined by a laser diffraction particle diameter distribution determination device (NICOMP Model 370)(Table1).

aminopeptidase-1 = conditions: per unit weight of enzyme and unit time, beginning (15 minutes) of reaction, 37°C, Tris buffer pH 7.5; MMP-2 0.17 µg/ml, aminopeptidase-1 10 µg/ml
Protocol: (§1) Fmoc-[…] was dissolved in Tris buffer (100 mM Tris/100 mM NaCl/10 mM CaCl2/0.05% BRIJ35, pH 7.5) and adjusted to a pre-determined concentration. MMP-2, collagenase, carboxypeptidase A, aminopeptidase-1, and trypsin were each diluted or dissolved in Tris buffer. Each enzyme solution was added to Fmoc-[…] solution that had been heated to 37°C and incubated for a pre-determined time at 37°C. The final concentration of the enzymes was as shown below: MMP-2: 0.17 µg/ml, collagenase: 7 µg/ml, carboxypeptidase A: 10 µg/ml, aminopeptidase-1: 10 µg/ml, trypsin: 10 µg/ml. After a pre-determined time, the same amount of acetonitrile was added to the sample solutions and they were filtered with a 0.5 µm filter (Millex-LH MILIPORE).

carboxypeptidase A = carboxypeptidase A (Homo sapiens, UniProt P15085); conditions: per unit weight of enzyme and unit time, beginning (15 minutes) of reaction, 37°C, Tris buffer pH 7.5; MMP-2 0.17 µg/ml, carboxypeptidase A 10 µg/ml
Chain of carboxypeptidase A (P15085 111-419): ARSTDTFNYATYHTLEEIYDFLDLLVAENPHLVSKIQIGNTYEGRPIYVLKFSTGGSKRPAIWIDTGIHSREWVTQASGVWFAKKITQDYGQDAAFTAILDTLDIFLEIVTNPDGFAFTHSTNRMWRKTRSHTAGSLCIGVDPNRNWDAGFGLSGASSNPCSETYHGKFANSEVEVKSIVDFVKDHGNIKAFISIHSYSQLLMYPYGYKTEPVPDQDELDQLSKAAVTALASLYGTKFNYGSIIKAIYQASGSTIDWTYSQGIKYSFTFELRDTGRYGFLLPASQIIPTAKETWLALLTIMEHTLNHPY
Protocol: as §1

collagenase = conditions: per unit weight of enzyme and unit time, beginning (15 minutes) of reaction, 37°C, Tris buffer pH 7.5; MMP-2 0.17 µg/ml, collagenase 7 µg/ml
Protocol: as §1

trypsin = molecular target: T2, trypsin (Bos taurus, UniProt P00760); assay: Enzymatic degradation of peptide by trypsin; format: biochemical; conditions: trypsin 10 µg/ml, 37°C, Tris buffer pH 7.5
T2 construct: gene PRSS1
T2 sequence (P00760 24-246): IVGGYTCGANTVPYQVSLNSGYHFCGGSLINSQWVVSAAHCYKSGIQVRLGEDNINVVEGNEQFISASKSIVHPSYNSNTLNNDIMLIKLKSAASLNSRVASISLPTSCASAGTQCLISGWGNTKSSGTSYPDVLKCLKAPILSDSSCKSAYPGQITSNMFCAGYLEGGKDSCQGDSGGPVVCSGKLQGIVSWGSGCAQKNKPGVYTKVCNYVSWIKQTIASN
Protocol: as §1

| Compound | degradation rate by MMP-2 per unit weight of MMP-2 and unit time, peptide compared with peptide-PEG (MMP-2) | Particle diameter ([1]; Concentration 5 µM in Tris buffer pH 7.5) [nm] | Particle diameter ([1]; Concentration 10 µM in Tris buffer pH 7.5) [nm] | Particle diameter ([1]; Concentration 20 µM in Tris buffer pH 7.5) [nm] | Particle diameter ([1]; Concentration 50 µM in Tris buffer pH 7.5) [nm] | Particle diameter ([1]; Concentration 100 µM in Tris buffer pH 7.5) [nm] | particle diameter of aggregate ([1]; at 5 µm or more) | critical micelle concentration ([1]; concluded from particle diameter and laser scattering intensity, Tris buffer pH 7.5) [µM] | degradation rate by MMP-2 relative to that of aminopeptidase-1 (aminopeptidase-1) [x] | degradation rate by MMP-2 relative to that of carboxypeptidase A (carboxypeptidase A) [x] | degradation rate by MMP-2 relative to that of collagenase (collagenase) [x] | Degradation by trypsin (trypsin) |
| --- | --- | --- | --- | --- | --- | --- | --- | --- | --- | --- | --- | --- |
| 9-fluorenylmethyloxycarbonyl (Fmoc)-glycyl-prolyl-glutamyl-glycyl-isoleucyl-alanyl-glycyl-tryptophanyl-glycyl (Gly-Pro-Gln-Gly-Ile-Ala-Gly-Trp-Gly)-amide propyl polyoxyethylene methyl ether (Fmoc-GPQGIAGWG-{amide propyl polyoxyethylene methyl ether}; not fully specified) [Fmoc-GPQGIAGWG-PEG] | virtually the same | 232 | 200 | 205 | 210 | 237 | approximately 200 nm | ~5 | – | – | – | – |
| CC[C@H](C)[C@H](NC(=O)CNC(=O)[C@H](CCC(=O)O)NC(=O)[C@@H]1CCCN1C(=O)CN(C(=O)OCC1c2ccccc2-c2ccccc21)C(=O)OCC1c2ccccc2-c2ccccc21)C(=O)N[C@@H](C)C(=O)NCC(=O)N[C@@H](Cc1c[nH]c2ccccc12)C(=O)NCC(=O)O [Fmoc-GPQGIAGWG, 9-fluorenylmethyloxycarbonyl (Fmoc)-glycyl-prolyl-glutamyl-glycyl-isoleucyl-alanyl-glycyl-tryptophanyl-glycine (Gly-Pro-Gln-Gly-Ile-Ma-Gly-Trp-Gly)] (X1-PEGIAGWG-OH) | virtually the same | – | – | – | – | – | – | – | 14.2 | 38.8 | 26.9 | not observed |

Source: patent publication EP1591450A1, “CONJUGATE FOR RETENTION IN BLOOD AND CANCER TISSUE-SPECIFIC DRUG DELIVERY” (YAMANOUCHI PHARMACEUTICAL CO. LTD., priority 2003, dated 2004)
